B1: MAb 838: IgMκ monoclonal antibody to galactofuranose-containing GM; VH SEQ ID NO:7, VL SEQ ID NO:8 (antibody, listed as Mus musculus, V domains shown)
VH: EVQLEESLRLSCATSGFTFSDFYMEWVRQPPGKRLEWIAASRNKANDYTTEYSASVKGRFFVSRDTSQSILYLQMNALRAEDTAIYYCARDVMITTGDWYFDVWGAGTTVTVSS
VL: DILMTQSQKFMSTSVGDRVSVTCKASQNVGTNVAWYQQKPGQSPKALIYSASYQYSGVPDRFTGSGSGTDFTLTISNVQSEDLAEYFCQQFNSYHVRLGDKVGIKT
modifications: (1)..(342) 838.9.4 VH (B4B); (1)..(318) 838.9.4. VL (p6)

How the values were obtained:
[1] = rabbit model; within 24 hours of intravenous injection; cited from earlier work
[2] = Competition ELISA, relative affinities of GM-binding MAbs; design: species or system Aspergillus fumigatus
Experimental: FIG. 9 is a graph showing the relative affinities of GM-binding MAbs. Measurements were made by competition ELISA using soluble ethanol-precipitated culture filtrate. Percent of maximal binding is shown;
The relative affinities of the GM-binding MAbs were determined by competition ELISA. […] The % of maximal binding is shown in (FIG. 9). […] These values are similar to those reported for other polysaccharide-binding MAbs.
Competition ELISAs were done using each combination of the MAb pairs to confirm that the MAbs were binding to the same epitope and their relative avidities for GM. Biotinylation of the second MAb allowed the use of alkaline phosphatase-conjugated streptavidin for detection and was done by linkage of anion exchange-purified MAbs to sulfo-NHS-LC biotin. Competition among each of the MAb pairs was observed, supporting binding to similar epitopes or the presence of steric hindrance. […] The MAb 838-producing hybridoma manufactures relatively low concentrations of MAb, making use of this cell line difficult.

Row | Molecule | GM excreted in the urine [1] [%] | Kd ([2]; calculated from competition ELISA, read-out: dissociation constant (Kd)) [nM] | affinity for GM, higher than the other three MAbs ([2]; competition ELISA) | concentration required for competition, lower than for the other MAbs ([2]; competition ELISA between MAb pairs)
1 | Galactomannan [GM] | 35 | – | – | –
2 | B1 | – | 100 | approximately 10 fold | approximately 10 fold

— patent publication US9915657B2, “Lateral flow device for diagnosing microbial infections” (THE JOHNS HOPKINS UNIVERSITY, priority 2009, dated 2018)
